# In patent US20200223889A1 (Novo Nordisk, published 2020):
# Positions of bridges follow the written chain, without caps; N, C: chain ends. Non-standard residues stand in square brackets, D forms with d. Hyp = O=C(O)[C@@H]1C[C@@H](O)CN1; Cit = NC(=O)NCCC[C@H](N)C(=O)O; Api = NC1(C(=O)O)CCNCC1; Aib = CC(C)(N)C(=O)O; GABA = NCCCC(=O)O; Sar = CNCC(=O)O
# B1: Chem. 31 (peptide)
# peptide: cyclo(C[Sar]H[dF]RWC[Sar]H[dF]RW)
# modifications: disulfide 1-7
# SMILES: CN1CC(=O)N[C@@H](Cc2c[nH]cn2)C(=O)N[C@H](Cc2ccccc2)C(=O)N[C@@H](CCCNC(=N)N)C(=O)N[C@@H](Cc2c[nH]c3ccccc23)C(=O)N[C@H]2CSSC[C@H](NC(=O)[C@H](Cc3c[nH]c4ccccc34)NC(=O)[C@H](CCCNC(=N)N)NC(=O)[C@@H](Cc3ccccc3)NC(=O)[C@H](Cc3c[nH]cn3)NC(=O)CN(C)C2=O)C1=O
# notes: also called c[c[Cys-Sar-His-D-Phe-Arg-Trp-Cys]-Sar-His-D-Phe-Arg-Trp]
# B2: Chem. 32 (peptide)
# peptide: cyclo(C[Hyp]H[dF]RWC[Hyp]H[dF]RW)
# modifications: disulfide 1-7
# SMILES: N=C(N)NCCC[C@@H]1NC(=O)[C@@H](Cc2ccccc2)NC(=O)[C@H](Cc2c[nH]cn2)NC(=O)[C@@H]2C[C@@H](O)CN2C(=O)[C@@H]2CSSC[C@H](NC(=O)[C@H](Cc3c[nH]c4ccccc34)NC1=O)C(=O)N1C[C@H](O)C[C@H]1C(=O)N[C@@H](Cc1c[nH]cn1)C(=O)N[C@H](Cc1ccccc1)C(=O)N[C@@H](CCCNC(=N)N)C(=O)N[C@@H](Cc1c[nH]c3ccccc13)C(=O)N2
# notes: also called c[c[Cys-Hyp-His-D-Phe-Arg-Trp-Cys]-Hyp-His-D-Phe-Arg-Trp]
# B3: Chem. 35 (peptide)
# peptide: cyclo(C[GABA]H[dF]RWC[GABA]H[dF]RW)
# modifications: disulfide 1-7
# SMILES: N=C(N)NCCC[C@@H]1NC(=O)[C@@H](Cc2ccccc2)NC(=O)[C@H](Cc2c[nH]cn2)NC(=O)CCCNC(=O)[C@@H]2CSSC[C@H](NC(=O)[C@H](Cc3c[nH]c4ccccc34)NC1=O)C(=O)NCCCC(=O)N[C@@H](Cc1c[nH]cn1)C(=O)N[C@H](Cc1ccccc1)C(=O)N[C@@H](CCCNC(=N)N)C(=O)N[C@@H](Cc1c[nH]c3ccccc13)C(=O)N2
# notes: also called c[c[Cys-GABA-His-D-Phe-Arg-Trp-Cys]-GABA-His-D-Phe-Arg-Trp]
# B4: Chem. 4 (peptide)
# peptide: cyclo(CH[dF]RWGCH[dF]RWG)
# modifications: disulfide 1-7
# SMILES: N=C(N)NCCC[C@@H]1NC(=O)[C@@H](Cc2ccccc2)NC(=O)[C@H](Cc2c[nH]cn2)NC(=O)[C@@H]2CSSC[C@H](NC(=O)CNC(=O)[C@H](Cc3c[nH]c4ccccc34)NC1=O)C(=O)N[C@@H](Cc1c[nH]cn1)C(=O)N[C@H](Cc1ccccc1)C(=O)N[C@@H](CCCNC(=N)N)C(=O)N[C@@H](Cc1c[nH]c3ccccc13)C(=O)NCC(=O)N2
# notes: also called c[c[Cys-His-D-Phe-Arg-Trp-Gly-Cys]-His-D-Phe-Arg-Trp-Gly]
# B5: Chem. 36 (peptide)
# peptide: cyclo(CVH[dF]RWCVH[dF]RW)
# modifications: disulfide 1-7
# SMILES: CC(C)[C@@H]1NC(=O)[C@@H]2CSSC[C@H](NC(=O)[C@H](Cc3c[nH]c4ccccc34)NC(=O)[C@H](CCCNC(=N)N)NC(=O)[C@@H](Cc3ccccc3)NC(=O)[C@H](Cc3c[nH]cn3)NC1=O)C(=O)N[C@@H](C(C)C)C(=O)N[C@@H](Cc1c[nH]cn1)C(=O)N[C@H](Cc1ccccc1)C(=O)N[C@@H](CCCNC(=N)N)C(=O)N[C@@H](Cc1c[nH]c3ccccc13)C(=O)N2
# notes: also called c[c[Cys-Val-His-D-Phe-Arg-Trp-Cys]-Val-His-D-Phe-Arg-Trp]
# B6: Chem. 37 (peptide)
# peptide: CAHFXWCAHFXW
# modifications: D-Phe 4, 10; N-MeArg 5, 11; disulphide Cys1-Cys7; head-to-tail amide Cys1-Trp12
# notes: also called c[c[Cys-Ala-His-D-Phe-N-MeArg-Trp-Cys]-Ala-His-D-Phe-N-MeArg-Trp]
# B7: Chem. 39 (peptide)
# peptide: cyclo(C[Aib]P[dF]RWC[Aib]P[dF]RW)
# modifications: disulfide 1-7
# SMILES: CC1(C)NC(=O)[C@@H]2CSSC[C@H](NC(=O)[C@H](Cc3c[nH]c4ccccc34)NC(=O)[C@H](CCCNC(=N)N)NC(=O)[C@@H](Cc3ccccc3)NC(=O)[C@@H]3CCCN3C1=O)C(=O)NC(C)(C)C(=O)N1CCC[C@H]1C(=O)N[C@H](Cc1ccccc1)C(=O)N[C@@H](CCCNC(=N)N)C(=O)N[C@@H](Cc1c[nH]c3ccccc13)C(=O)N2
# notes: also called c[c[Cys-Aib-Pro-D-Phe-Arg-Trp-Cys]-Aib-Pro-D-Phe-Arg-Trp]
# B8: Chem. 40 (peptide)
# peptide: cyclo(C[Aib]H[dF]KWC[Aib]H[dF]KW)
# modifications: disulfide 1-7
# SMILES: CC1(C)NC(=O)[C@@H]2CSSC[C@H](NC(=O)[C@H](Cc3c[nH]c4ccccc34)NC(=O)[C@H](CCCCN)NC(=O)[C@@H](Cc3ccccc3)NC(=O)[C@H](Cc3c[nH]cn3)NC1=O)C(=O)NC(C)(C)C(=O)N[C@@H](Cc1c[nH]cn1)C(=O)N[C@H](Cc1ccccc1)C(=O)N[C@@H](CCCCN)C(=O)N[C@@H](Cc1c[nH]c3ccccc13)C(=O)N2
# notes: also called c[c[Cys-Aib-His-D-Phe-Lys-Trp-Cys]-Aib-His-D-Phe-Lys-Trp]
# B9: Chem. 42 (peptide)
# peptide: CAHFXWCAHFXW
# modifications: D-Phe 4, 10; AGP 5, 11; disulphide Cys1-Cys7; head-to-tail amide Cys1-Trp12
# notes: also called c[c[Cys-Ala-His-D-Phe-AGP-Trp-Cys]-Ala-His-D-Phe-AGP-Trp]
# B10: Chem. 45 (peptide)
# peptide: cyclo(CAH[dF][Cit]WCAEEEW)
# modifications: disulfide 1-7
# SMILES: C[C@@H]1NC(=O)[C@@H]2CSSC[C@H](NC(=O)[C@H](Cc3c[nH]c4ccccc34)NC(=O)[C@H](CCCNC(N)=O)NC(=O)[C@@H](Cc3ccccc3)NC(=O)[C@H](Cc3c[nH]cn3)NC1=O)C(=O)N[C@@H](C)C(=O)N[C@@H](CCC(=O)O)C(=O)N[C@@H](CCC(=O)O)C(=O)N[C@@H](CCC(=O)O)C(=O)N[C@@H](Cc1c[nH]c3ccccc13)C(=O)N2
# notes: also called c[c[Cys-Ala-His-D-Phe-Cit-Trp-Cys]-Ala-Glu-Glu-Glu-Trp]
# B11: Chem. 47 (peptide)
# peptide: cyclo(C[Api]H[dF]RWC[Api]H[dF]RW)
# modifications: disulfide 1-7
# SMILES: N=C(N)NCCC[C@@H]1NC(=O)[C@@H](Cc2ccccc2)NC(=O)[C@H](Cc2c[nH]cn2)NC(=O)C2(CCNCC2)NC(=O)[C@@H]2CSSC[C@H](NC(=O)[C@H](Cc3c[nH]c4ccccc34)NC1=O)C(=O)NC1(CCNCC1)C(=O)N[C@@H](Cc1c[nH]cn1)C(=O)N[C@H](Cc1ccccc1)C(=O)N[C@@H](CCCNC(=N)N)C(=O)N[C@@H](Cc1c[nH]c3ccccc13)C(=O)N2
# notes: also called c[c[Cys-ACP-His-D-Phe-Arg-Trp-Cys]-ACP-His-D-Phe-Arg-Trp]
# B12: Chem. 48 (peptide)
# peptide: cyclo(CAH[dF][Cit]WCAKKKW)
# modifications: disulfide 1-7
# SMILES: C[C@@H]1NC(=O)[C@@H]2CSSC[C@H](NC(=O)[C@H](Cc3c[nH]c4ccccc34)NC(=O)[C@H](CCCNC(N)=O)NC(=O)[C@@H](Cc3ccccc3)NC(=O)[C@H](Cc3c[nH]cn3)NC1=O)C(=O)N[C@@H](C)C(=O)N[C@@H](CCCCN)C(=O)N[C@@H](CCCCN)C(=O)N[C@@H](CCCCN)C(=O)N[C@@H](Cc1c[nH]c3ccccc13)C(=O)N2
# notes: also called c[c[Cys-Ala-His-D-Phe-Cit-Trp-Cys]-Ala-Lys-Lys-Lys-Trp]
# B13: Chem. 49 (peptide)
# peptide: cyclo(CH[dF]RWCH[dF]RW)
# modifications: disulfide 1-6
# SMILES: N=C(N)NCCC[C@@H]1NC(=O)[C@@H](Cc2ccccc2)NC(=O)[C@H](Cc2c[nH]cn2)NC(=O)[C@@H]2CSSC[C@H](NC(=O)[C@H](Cc3c[nH]c4ccccc34)NC1=O)C(=O)N[C@@H](Cc1c[nH]cn1)C(=O)N[C@H](Cc1ccccc1)C(=O)N[C@@H](CCCNC(=N)N)C(=O)N[C@@H](Cc1c[nH]c3ccccc13)C(=O)N2
# notes: also called c[c[Cys-His-D-Phe-Arg-Trp-Cys]-His-D-Phe-Arg-Trp]
# Target: T1, human melanocortin 4 receptor (human, UniProt P32245 1-332)
# Assay: cell-based or functional assay
# T1 sequence (P32245 whole entry): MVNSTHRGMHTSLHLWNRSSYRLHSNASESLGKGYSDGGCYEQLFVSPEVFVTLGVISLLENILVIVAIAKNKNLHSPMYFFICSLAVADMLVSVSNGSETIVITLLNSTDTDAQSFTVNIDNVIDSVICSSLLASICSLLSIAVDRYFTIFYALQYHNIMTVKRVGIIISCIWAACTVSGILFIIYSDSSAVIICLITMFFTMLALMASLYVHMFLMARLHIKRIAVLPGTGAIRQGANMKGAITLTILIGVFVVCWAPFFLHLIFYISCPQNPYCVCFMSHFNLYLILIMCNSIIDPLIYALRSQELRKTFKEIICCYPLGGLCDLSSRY
row,Binder,MC4R cAMP EC50
1,B1,0.29 nM
2,B2,0.12 nM
3,B3,0.01 nM
4,B4,0.09 nM
5,B5,0.04 nM
6,B6,1.57 nM
7,B7,1.54 nM
8,B8,0.29 nM
9,B9,> 1000 nM
10,B10,45.7 nM
11,B11,0.12 nM
12,B12,0.06 nM
13,B13,1.28 nM

# Target: human melanocortin 1 receptor (human, UniProt Q01726 1-317)
# Assay: cell-based or functional assay
# Sequence of human melanocortin 1 receptor (Q01726 whole entry): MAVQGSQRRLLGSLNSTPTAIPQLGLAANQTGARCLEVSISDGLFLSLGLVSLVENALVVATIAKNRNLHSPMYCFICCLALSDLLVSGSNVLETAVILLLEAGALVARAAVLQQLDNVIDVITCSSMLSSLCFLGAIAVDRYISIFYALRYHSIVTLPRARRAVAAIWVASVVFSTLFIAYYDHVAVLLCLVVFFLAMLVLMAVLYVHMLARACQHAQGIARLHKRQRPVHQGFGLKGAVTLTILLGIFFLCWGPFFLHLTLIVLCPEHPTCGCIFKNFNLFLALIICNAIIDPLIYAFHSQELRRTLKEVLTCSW
row,Binder,MC1R cAMP EC50
1,B1,7.78 nM
2,B2,1.98 nM
3,B3,0.28 nM
4,B4,0.67 nM
5,B5,1.05 nM
6,B6,13.1 nM
7,B7,56.4 nM
8,B8,11.1 nM
9,B9,> 100 nM
10,B10,> 100 nM
11,B11,2.79 nM
12,B12,9.14 nM
13,B13,> 5.5 nM

# Target: T1, human melanocortin 4 receptor
# Assay: competition with 125-NDP-α-MSH, BHK human MC4R membranes
# Summary of the method: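 Competition binding used membranes from BHK cells stably expressing human MC4R with ¹²⁵I-NDP-α-MSH (apx. […] final), compound at 1 μM–0.001 nM. Incubation was 2 h at 25 °C in HEPES pH 7.0 buffer with CaCl₂, MgSO₄, EGTA, Tween 20 and 0.1% HSA or ovalbumin. Filter-bound radioactivity was fitted by non-linear regression.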
row,Binder,Ki
1,B1,1.67 nM
2,B2,0.37 nM
3,B3,0.03 nM
4,B4,0.69 nM
5,B5,0.12 nM
6,B6,3.31 nM
7,B7,1.8 nM
8,B8,0.31 nM
9,B9,10000 nM
10,B10,1000 nM
11,B11,0.72 nM
12,B12,0.15 nM
13,B13,3.92 nM
